Results reported in the RNAGym collection of RNA variant scans (doi:10.1073/pnas.2313332121).

B1: TPR t1 (parent)
chain: GACCAAUCUGCCCUCAGAGCUCGAGAACAUCUUCGGAUGCAGAGGAGGCAGGCUUCGGUGGCGCGAUAGCGCCAACGUCCUCAACCUCCAAUGCAUCCCACCACAUGAUGAUGCCUGAAGAGCCUUGGUUUUUUG

Variants of: B1
Experiment: polymerase ribozyme fitness, log enrichment relative to wild type (log ratio); higher = more active; in vitro selection for triplet polymerase activity
Summary of the method: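 Both subunits of a heterodimeric triplet polymerase ribozyme were given their own mutant library, built by PCR and transcribed. Each library was annealed with a biotinylated primer, the partner subunit and triplets, incubated frozen at −7 °C, and its extended constructs gel-excised, captured on streptavidin beads and amplified by RT-PCR, all in one round done in triplicate. Fitness is the logarithm of genotype enrichment relative to wild-type enrichment, with replicates averaged by inverse-variance weighting. That logarithm is base 2, and Illumina-sequenced genotypes needed ≥10 input reads and ≥1 read per output.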

Variant	polymerase ribozyme fitness (log ratio)
GACCAAUCUGCCCUCAGAGCUCGAGAACAUCUUCGGAUGCAGAGGAGGCAGGCUUUGGUGGCGCGAUAGCGCCAACGUCCUCAACCUCCAAUGCAUCCCACCACAUGAUGAUUCCUGAAGAGGCUUGGUUUUUUG	-2.01
GACCAAUCUGCCCUCAGAGCUCGAGAACAUCUUCGGAUGCAGAGGAGGCAGGCUUUGGUGGCCCGAUAGCGCCAACGUCCUCAACCUCCAAUGUAUCCCACCACAUGAUGAUGCCUGAAGAGCCUUGGUUUUUUG	-5.48
GACCAAUCUGCCCUCAGAGCUCGAGAACAUCUUCGGAUGCAGAGGAGGCAGGCUUUGGUGGCGCGAUAGCGCCAACGUCCUCAACCUCCAAUGCAUCCCACCACAUGAUGAUUCCUGAAGAGCCUUGGUUUUUUG	-2.72
GACCAAUCUGCCCUCAGAGCUCGAGAACAUCUUCGGAUGCAGAGGAGGCAGGCUUUGGUGGCGCGAUAGCGCCAACGUCCUCAACCUCCAAUGCAUCCCACCACAUGAUGAUCCCUGAAGAGCCUUGGUUUUUUG	-1.97
GACCAAUCUGCCCUCAGAGCUCGAGAACAUCUUCGGAUGCAGAGGAGGCAGGCUUUGGUGGCGCGAUAGCGCCAACAUCCUCAACCUCCAAUGCAUCCCACCACAUGAUGAUGCCUUAAAAGCAUUGGUUUUUUG	-1.34
GACCAAUCUGCCCUCAGAGCUCGAGAACAUCUUCGGAUGCAGAGGAGGCAGGCUUUGGUGGCGCGAUACCGCCAACGUCCUCAACCUCCAAUGCAUCCCACCACAUGAUGAUGGCUGAAGAGCCUUGGUUUUUUG	-6.88
GACCAAUCUGCCCUCAGAGCUCGAGAACAUCUUCGGAUGCAGAGGAGGCAGGCUUUGGUGGCGCGAUAUCGCCAACGUCCUCAACCUCCAAUGCAUCCCACCACAUGAUGAGGCCUGAUGAGCCUUGGUUUUUUG	-3.07
GACCAAUCUGCCCUCAGAGCUCGAGAACAUCUUCGGAUGCAGAGGAGGCAGGCUUUGGUGGCGCGAUAGCAGCAACCUCCUGAACCUCCAAUGCAUCCCACCACAUGAUGUUGCCUGAAGAGCCUUGGUUUUUUG	-6.46
GACCAAUCUGCCCUCAGAGCUCGAGAACAUCUUCGGAUGCAGAGGAGGCAGGCUUUGGUUGCGCGAUAGCGCCAACGUCCUCAACCUCCAAUGCAUCCCACCACAUGAUGAUGCCUGAAGAGCCUUGGUUUUUUG	-3.21
GACCAAUCUGCCCUCAGAGCUCGAGAACAUCUUCGGAUGCAGAGGAGGCAGGCUUUGGUGGCGCGAUAGCGCCAACGUCCUCAACCUCCAAUGCAUCCCACCACAUGAUUAUGCCGUAAGAGCCUUGGUUUUUUG	-6.29
GACCAAUCUGCCCUCAGAGCUCGAGAACAUCUUCGGAUGCAGAGGAGGCAGGCUUUGGUGUCGCGAUAGCGCCAACGUCCUCAACCUCCAAUGCAUCCCACCAUAUGAUGAGGCCUUAAGAGCUUUGGUUUUUUG	-5.56
GACCAAUCUGCCCUCAGAGCUCGAGAACAUCUUCGGAUGCAGAGGAGGCAGGCUUUGGUAGCGCGAUAGCGCCAACGUCCUCAACCUCCAAUGCAUCCCAUCACAUGAUGAUGCCUGAAGAGCCUUGGUUUUUUG	-5.48
GACCAAUCUGCCCUCAGAGCUCGAGAACAUCUUCGGAUGCAGAGGAGGCAGGCUUUGGUGGCGCGAUAGCGCCAACGUCCUCAACCUCCAAUGCAUCCCACCACAUGAUGAUGCCUCAAGAGCCUUGGUUUUUUG	-3.64
GACCAAUCUGCCCUCAGAGCUCGAGAACAUCUUCGGAUGCAGAGGAGGCAGGCUUUGGUGGCGCGAUAACGCCAACGGCCUCCACCUCCAAUGCAUCCCACCACAUGAUGAUGCCUGAAGAGCCUUGGUUUUUUG	-4.4
GACCAAUCUGCCCUCAGAGCUCGAGAACAUCUUCGGAUGCAGAGGAGGCAGGCUUUGGUGGCGCGAUAACGCCAACGUCCUCAACCUCCAAUGCAUCCCACCACAUGAUGAUACCUGAAGAGCCUUGGUUUUUUG	-5.38
GACCAAUCUGCCCUCAGAGCUCGAGAACAUCUUCGGAUGCAGAGGAGGCAGGCUUUGGUGGCGCGAUAGCGCCAACGUCCUCAACCUCCAAUGCAUCCCACCACAUGAUAAUGCCUGAAGAGCCUUGGUUUUUUG	-0.719
GACCAAUCUGCCCUCAGAGCUCGAGAACAUCUUCGGAUGCAGAGGAGGCAGGCUUUGGUGGCGCUAUAGCGCCAACGUCCUCAACCUCCAAUGCAUCCCACCACAUGAUGAUGUCUGAAGAGCCUUGGUUUUUUG	-6.33
GACCAAUCUGCCCUCAGAGCUCGAGAACAUCUUCGGAUGCAGAGGAGGCAGGCUUUGGUGGCGCGAUAGCGCCAACAUCCUCAACCUCCAAUGCAUCCCACCACAUGAUGAUGCCUGAAGAGCUUUGGUUUUUUG	1.2
GACCAAUCUGCCCUCAGAGCUCGAGAACAUCUUCGGAUGCAGAGGAGGCAGGCUUUGGUGGCGCGAUAGCGCCAACUUCCUCAACCUCCAAUGCAUCCCAACACAUGAUGAUGCCUGAAGAGCCUUGGUUUUUUG	-1.15
GACCAAUCUGCCCUCAGAGCUCGAGAACAUCUUCGGAUGCAGAGGAGGCAGGCUUUGGUGCCGCGAUAGCGCCAACGUCCUCAACCUCCAAUGCAUUCCACCUCAUGAUGAUGCCUGAAGAGGCUUGGUUUUUUG	-7.29
GACCAAUCUGCCCUCAGAGCUCGAGAACAUCUUCGGAUGCAGAGGAGGCAGGCUUUGGUGGCGCGAUAUCGCCAACGUCCUCAACCUCCAAUGCAUCCCACCACAUGAUGAUGCCUGAAGAGCCUUGGUUUUUUG	-1.78
